Source: the supplement of paper PMC7125110
± gives the standard error. Variants at the floor of the assay were thinned out.

B1: glmS ribozyme (parent)
chain: AUAAAAGCGCCAGAACUACAGAAAUGUAGUUGACGAGGAGGAGGUUUAUCGAAUUUUCGGCGGAUGCCUCCAAA

Tests used:
Details in all cases: with glucosamine-6-phosphate
glucosamine-6-phosphate [1] = variants of: B1; experiment: self-cleavage kobs at 640 uM GlcN6P; higher = faster cleavage; RNA array
In short: (§1)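 Barcoded ribozyme variants were transcribed in situ on sequenced MiSeq chips by E. coli RNA polymerase. At 37 °C, a hybridised Cy3 probe tracked them while glucosamine-6-phosphate (40 μM to 10 mM) in HEPES/KCl/Mg(OAc)2 buffer flowed in and tiles were imaged over ~14 h. Per-tile medians of signals normalised to baseline and to non-cleaving reference variants were fit to one- or two-exponential decays, giving kobs. kcat and KM came from weighted Michaelis–Menten fits across concentrations.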

glucosamine-6-phosphate [2] = variants of: B1; experiment: self-cleavage kobs at 10000 uM GlcN6P; higher = faster cleavage; RNA array
In short: as §1

glucosamine-6-phosphate [3] = variants of: B1; experiment: self-cleavage kobs at 2500 uM GlcN6P; higher = faster cleavage; RNA array
In short: as §1

Variant: AUAAAAGCGCCAGAACUACAGAAAUGUAGUUGAUGAGGAGGAGGUUUAUCGAAUUUUGGGCGGAGGCCUCCAAA
- self-cleavage kobs at 640 uM GlcN6P (glucosamine-6-phosphate [1]): < 1e-05 s⁻¹

Variant: AUAAAAGCGCCAGAACUACAGAAAUGUAGUUGUCUAGGAGGAGGUUUAUCGAAAUUUCGGCGGAUGCCUCCAAA
- self-cleavage kobs at 640 uM GlcN6P (glucosamine-6-phosphate [1]): < 1e-05 s⁻¹
- self-cleavage kobs at 10000 uM GlcN6P (glucosamine-6-phosphate [2]): < 1e-05 s⁻¹

Variant: AUAAAAGCGCCAGAACUACAGAAAUGUAGUUGGCGAGGACCAAGUUUAACGAAUUUUCGGCGGAUGCCUCCAAA
- self-cleavage kobs at 640 uM GlcN6P (glucosamine-6-phosphate [1]): < 1e-05 s⁻¹
- self-cleavage kobs at 2500 uM GlcN6P (glucosamine-6-phosphate [3]): < 1e-05 s⁻¹

Variant: AUAAAAGCGCCAGAACUACAGAAAUGUAGUUGGCGAGGAGGAGGUUUAUCGAAUUUUCGCCGGAUGCGUCCAAA
- self-cleavage kobs at 640 uM GlcN6P (glucosamine-6-phosphate [1]): < 1e-05 s⁻¹

Variant: AUAAAAGCGCCAGAACUACAGAAAUGUAGUUGUCGAGGAGGAGGUUUAUCGAAUCUUCGGCGGAUGCCUUCAAA
- self-cleavage kobs at 640 uM GlcN6P (glucosamine-6-phosphate [1]): < 1e-05 s⁻¹

Variant: AUAAAAGCGCCAGAACUACAGAAAUGUAGUUGUCGAGGAUGAGGUUUAUCGUAUUUGCGGCGGAUGCCUCCAAA
- self-cleavage kobs at 640 uM GlcN6P (glucosamine-6-phosphate [1]): < 1e-05 s⁻¹
- self-cleavage kobs at 2500 uM GlcN6P (glucosamine-6-phosphate [3]): < 1e-05 s⁻¹

Variant: AUAAAAGCGCCAGAACUACAGAAAUGUAGUUGCCGAGGAGGAGGUUGAUCGAAUUUUCGGCGGAUGCCUCCAAA
- self-cleavage kobs at 640 uM GlcN6P (glucosamine-6-phosphate [1]): 8.08e-05 ± 3e-05 s⁻¹
- self-cleavage kobs at 10000 uM GlcN6P (glucosamine-6-phosphate [2]): 6.4e-05 ± 1.3e-05 s⁻¹

Variant: AUAAAAGCGCCAGAACUACAGAAAUGUAGUUGAUGGGGAGGAGAUUUAUCGAAUUUUAGGCGGAUGCUUCCAAA
- self-cleavage kobs at 640 uM GlcN6P (glucosamine-6-phosphate [1]): < 1e-05 s⁻¹
- self-cleavage kobs at 2500 uM GlcN6P (glucosamine-6-phosphate [3]): < 1e-05 s⁻¹

Variant: AUAAAAGCGCCAGAACUACAGAAAUGUAGUUGAUGAGGUGGAGGUUUAUCGAAUUUUCGGCGGAUGCCUCCAAA
- self-cleavage kobs at 640 uM GlcN6P (glucosamine-6-phosphate [1]): < 1e-05 s⁻¹
- self-cleavage kobs at 2500 uM GlcN6P (glucosamine-6-phosphate [3]): < 1e-05 s⁻¹
- self-cleavage kobs at 10000 uM GlcN6P (glucosamine-6-phosphate [2]): < 1e-05 s⁻¹

Variant: AUAAAAGCGCCAGAACUACAGAAAUGUAGUUGUCGAGGAGGAGGUUUAUCGAAAUUUCGCCGGAUGCCUCCAAA
- self-cleavage kobs at 640 uM GlcN6P (glucosamine-6-phosphate [1]): < 1e-05 s⁻¹
- self-cleavage kobs at 2500 uM GlcN6P (glucosamine-6-phosphate [3]): < 1e-05 s⁻¹

Variant: AUAAAAGCGCCAGAACUACAGAAAUGUAGUUGAGGAGGAGGAGGUUUAUCGACUUUUCGGCGGCUGCCUCCAAA
- self-cleavage kobs at 640 uM GlcN6P (glucosamine-6-phosphate [1]): < 1e-05 s⁻¹

Variant: AUAAAAGCGCCAGAACUACAGAAAUGUAGUUGUCGAGGUGCAAGUUUAUCGAAUUUUCGGCGGAUGCCUGCAAA
- self-cleavage kobs at 640 uM GlcN6P (glucosamine-6-phosphate [1]): < 1e-05 s⁻¹

Variant: AUAAAAGCGCCAGAACUACAGAAAUGUAGUUGAUGAGGAGGAGGUUUAUCGAUUUUUCGGCGGAUGCCUGCAAA
- self-cleavage kobs at 640 uM GlcN6P (glucosamine-6-phosphate [1]): 0.000145 ± 4.1e-05 s⁻¹

Variant: AUAAAAGCGCCAGAACUACAGAAAUGUAGUUGAAGAGGAGGCGGUUUAUCGAAUUUUCGGCGGAUGCCUACAAA
- self-cleavage kobs at 640 uM GlcN6P (glucosamine-6-phosphate [1]): < 1e-05 s⁻¹

Variant: AUAAAAGCGCCAGAACUACAGAAAUGUAGUUGAGGACGAGGAGGUUUAUCGAAUUUUCGGCGGAUGCCUCCAAA
- self-cleavage kobs at 640 uM GlcN6P (glucosamine-6-phosphate [1]): < 1e-05 s⁻¹
- self-cleavage kobs at 10000 uM GlcN6P (glucosamine-6-phosphate [2]): < 1e-05 s⁻¹

Variant: AUAAAAGCGCCAGAACUACAGAAAUGUAGUUGCCGAGGAGGCGGUUGAUCGAAUUGUCGGCGGAUGCCUCCAAA
- self-cleavage kobs at 640 uM GlcN6P (glucosamine-6-phosphate [1]): < 1e-05 s⁻¹

Variant: AUAAAAGCGCCAGAACUACAGAAAUGUAGUUGCCGAGCAGGAGGUUUAUCCAAUUUUCGGCGGCUGCCUCCAAA
- self-cleavage kobs at 640 uM GlcN6P (glucosamine-6-phosphate [1]): < 1e-05 s⁻¹
- self-cleavage kobs at 10000 uM GlcN6P (glucosamine-6-phosphate [2]): < 1e-05 s⁻¹

Variant: AUAAAAGCGCCAGAACUACAGAAAUGUAGUUGAAGAGGAGGAAGUUUAUCCAAUUGUCGGCGGAUGCCUCCAAA
- self-cleavage kobs at 640 uM GlcN6P (glucosamine-6-phosphate [1]): < 1e-05 s⁻¹

Variant: AUAAAAGCGCCAGAACUACAGAAAUGUAGUUGGCGAGGAUGAGGUUUAUCGAAUUUUAGGCGGAUGACUCCAAA
- self-cleavage kobs at 640 uM GlcN6P (glucosamine-6-phosphate [1]): < 1e-05 s⁻¹
- self-cleavage kobs at 2500 uM GlcN6P (glucosamine-6-phosphate [3]): < 1e-05 s⁻¹

Variant: AUAAAAGCGCCAGAACUACAGAAAUGUAGUUGGCGUGGAGGAGGUUUAUCGAAUUUUCGGCGGAUGCCUGCAAA
- self-cleavage kobs at 640 uM GlcN6P (glucosamine-6-phosphate [1]): 0.000157 ± 5.3e-05 s⁻¹

Variant: AUAAAAGCGCCAGAACUACAGAAAUGUAGUUGCCGAGGAGGAGGUUCAUCGAAUUUUCGGCGGAGGCCUCCAAA
- self-cleavage kobs at 640 uM GlcN6P (glucosamine-6-phosphate [1]): < 1e-05 s⁻¹
- self-cleavage kobs at 2500 uM GlcN6P (glucosamine-6-phosphate [3]): < 1e-05 s⁻¹

Variant: AUAAAAGCGCCAGAACUACAGAAAUGUAGUUGUCGAGGAGGAGGUUUAUCGAAUUUGCGGCGGAUGCGUCCAAA
- self-cleavage kobs at 640 uM GlcN6P (glucosamine-6-phosphate [1]): 0.000105 ± 2.8e-05 s⁻¹
- self-cleavage kobs at 2500 uM GlcN6P (glucosamine-6-phosphate [3]): 0.000205 ± 7e-05 s⁻¹

Variant: AUAAAAGCGCCAGAACUACAGAAAUGUAGUUGAAGAGGAGGAGGUUUACCGAAUUUUAGGCGGAUGCCUCCAAA
- self-cleavage kobs at 640 uM GlcN6P (glucosamine-6-phosphate [1]): < 1e-05 s⁻¹

Variant: AUAAAAGCGCCAGAACUACAGAAAUGUAGUUGGCGAGGAGGAGGUUUCUCGAAUUUUCGGCGGAUGCUUCCAAA
- self-cleavage kobs at 640 uM GlcN6P (glucosamine-6-phosphate [1]): < 1e-05 s⁻¹
